Results: paper PMC9898259, “Cryo-EM structure supports a role of AQP7 as a junction protein” (Nature Communications, 2023)

Target: the molecule itself
Test: cryo-EM structure; single-particle cryo-EM; 1 mg/mL AQP7 in GDN on Quantifoil Cu R1.2/1.3 holey carbon grids, 4 °C; octamer = dimer of tetramers; D4 (2.55 Å) and C1 (3.0 Å) reconstructions

B1: Human aquaglyceroporin 7 (AQP7), full-length, C-terminal poly-histidine tag (natural protein, UniProt O14520 1-342, looked up)
chain: MVQASGHRRSTRGSKMVSWSVIAKIQEILQRKMVREFLAEFMSTYVMMVFGLGSVAHMVLNKKYGSYLGVNLGFGFGVTMGVHVAGRISGAHMNAAVTFANCALGRVPWRKFPVYVLGQFLGSFLAAATIYSLFYTAILHFSGGQLMVTGPVATAGIFATYLPDHMTLWRGFLNEAWLTGMLQLCLFAITDQENNPALPGTEALVIGILVVIIGVSLGMNTGYAINPSRDLPPRIFTFIAGWGKQVFSNGENWWWVPVVAPLLGAYLGGIIYLVFIGSTIPREPLKLEDSVAYEDHGITVLPKMGSHEPTISPLTPVSVSPANRSSVHPAPPLHESMALEHF
notes: Aquaporin-7 (aquaglyceroporin 7), human, full-length gene; residues 25-277 modelled in the 2.55 Å map; Tetramers that pair into an octamer (dimer of tetramers) in the cryo-EM structure; only ~47% of all particles were in the octamer class; also called human AQP7; source: P. pastoris GS115 aqy1Δ::HIS4 agp1Δ::NatMX, purified (Ni-NTA, size-exclusion chromatography) in GDN
stoichiometry N: 8
